Measured values from patent US10456446B2, “Use of human small leucine zipper protein in osteogenesis procedure” (Korea University Research and Business Foundation, priority 2013, dated 2019).

Experiments:
[1] = test system: BMMs (bone marrow macrophages)-derived mature osteoclasts; test: Osteoclast marker mRNA in osteoclasts derived from bone marrow macrophages of sLZIP TG mice, real-time PCR; assay type: cell-based, mouse; settings: RANKL 100 ng/mL and M-CSF 30 ng/mL, wild type versus sLZIP TG mice
Experimental: Real-time PCR was performed in LightCycler 480 using a SYBR Green Master Mix (Roche, Mannheim, Germany). β-actin was used as an internal control group. A target gene expression level rate with respect to β-actin was calculated using CT method. A Ct value is defined as a PCR cycle number at which a fluorescence signal reaches a fixed target threshold. Experiments were technically repeated three times for each experiment.
When a bone is initially developed during an embryo, cartilage is formed and hardened to a bone according to a so-called ossification (or osteogenesis) process. In order to examine whether sLZIP-mediated osteogenesis is associated with cartilage development, an effect of sLZIP in chondrocyte differentiation was examined. For this purpose, ATDC5 cells were temporarily transfected with sLZIP at different contents (0.1 μg to 0.5 μg). Total RNA was extracted from the cells, and an mRNA expression level of a chondrocyte marker was measured using RT-PCR analysis (FIG. 8A) and real-time PCR (FIG. 8B). GAPDH was used as an internal control group. An experiment was repeated three times. […] Total RNA was extracted from the mature osteoclasts, and an mRNA expression level of an osteoclast marker was measured using real-time PCR (FIG. 8D). […]

[2] = test system: primary MSCs and C3H10T1/2 cells; test: Osteoblast differentiation in primary MSCs and C3H10T1/2 cells; assay type: cell-based; settings: differentiation medium for 8 days
Experimental: Primary human mesenchymal stem cells (MSCs), C3H10T1/2, 293T and MEF cells were cultured in a DMEM to which thermally inactivated 10% FBS and penicillin (100 U/mL)/streptomycin (100 μg/mL) were added. All cell types were cultured in a humidified incubator containing CO2 5% under a temperature condition of 37° C. In order to induce osteoblast differentiation, the medium was exchanged with a DMEM in which 50 μg/mL of ascorbic acid, 10 mM of β-glycerophosphate and 10% FBS were contained for 8 days. The differentiation medium was changed once every two days.
C3H10T1/2 and 293T cells were plated in a 12-well culture dish at a density of 2×10^5 cells/well and incubated for 24 hours. Then, according to instructions of the manufacturer, the cells were transfected with a 0.2 μg of reporter genes and 0.1 to 0.5 μg of a laboratory plasmid using Lipofectamine 2000 or Genefectine. After 24 hours, the cells were cultured in a serum-free DMEM with or without 10 nM of rosiglitazone. siRNAs were prepared using sLZIP and HDAC target sequences (Table 1). […]
Therefore, in order to characterize a potential role of sLZIP in the transcriptional activity of Runx2 by inhibiting the transcriptional activity of PPARγ2, the transcriptional activity of Runx2 was examined. […] A promoter activity was measured by luciferase analysis. […]

B1: sLZIP: human small leucine-zipper protein, isoform of LZIP, 354 amino acids, no transmembrane domain, GenBank FJ263669, SEQ ID NO: 1 (protein, listed as Homo sapiens)
chain: MELELDAGDQDLLAFLLEESGDLGTAPDEAVRAPLDWALPLSEVPSDWEVDDLLCSLLSPPASLNILSSSNPCLVHHDHTYSLPRETVSMDLESESCRKEGTQMTPQHMEELAEQEIARLVLTDEEKSLLEKEGLILPETLPLTKTEEQILKRVRRKIRNKRSAQESRRKKKVYVGGLESRVLKYTAQNMELQNKVQLLEEQNLSLLDQLRKLQAMVIEISNKTSSSSMYSSDTRGSLPAEHGVLSRQLRALPSEDPYQLELPALQSEVPKDSTHQWLDGSDCVLQAPGNTSCLLHYMPQAPSAEPPLEWPFPDLFSEPLCRGPILPLQANLTRKGGWLPTGSPSVILQDRYSG
[1]
  osteoclast markers (Oscar, Ctsk, TARP): no difference
[2]
  osteoblast differentiation: increased osteoblast differentiation
